Data as given in PMC9135708.

Target: anti-PfTRAP mAb AKBR-7 (mouse)
Assay: BLI; Octet QKe; antibodies in culture supernatants immobilized on anti-Mouse IgG Fc Capture biosensors; antigen serially diluted (1–1000 nM) in 10x Kinetics Buffer (PBS + 0.1% BSA, 0.02% Tween-20, 0.05% sodium azide); fit to the 1:1 binding model

Kd: 0.15 nM
B1: Plasmodium falciparum TRAP ectodomain (PfTRAP) (domain or fragment)
chain: RDVQNNIVDEIKYSEEVCNDQVDLYLLMDCSGSIRRHNWVNHAVPLAMKLIQQLNLNDNAIHLYVNVFSNNAKEIIRLHSDASKNKEKALIIIRSLLSTNLPYGRTNLTDALLQVRKHLNDRINRENANQLVVILTDGIPDSIQDSLKESRKLSDRGVKIAVFGIGQGINVAFNRFLVGCHPSDGKCNLYADSAWENVKNVIGPFMKAVCVEVEKTASCGVWDEWSPCSVTCGKGTRSRKREILHEGCTSEIQEQCEEERCPPKWEPLDVPDEPEDDQPRPRGDNSSVQKPEENIIDNNPQEPSPNPEEGKDENPNGFDLDENPENPPNPDIPEQKPNIPEDSEKEVPSDVPKNPEDDREENFDIPKKPENKHDNQNNLPNDKSDRNIPYSPLPPKVLDNERKQSDPQSQDNNGNRHVPNSEDRETRPHGRNNENRSYNRKYNDTPKHPEREEHEKPDNNKKKGESDNKYK
modifications: site-specific biotinylation using BirA ligase, when required
